B1: ephrinB2-229 (S-tagged monomeric ephrinB2 ectodomain, residues 25-229) (domain or fragment, human, UniProt P52799 25-229, looked up)
chain: SKSIVLEPIYWNSSNSKFLPGQGLVLYPQIGDKLDIICPKVDSKTVGQYEYYKVYMVDKDQADRCTIKKENTPLLNCAKPDQDIKFTIKFQEFSPNLWGLEFQKNKDYYIISTSNGSLEGLDNQEGGVCQTRAMKILMKVGQDASSAGSTRNKDPTRRPELEAGTNGRSSTTSPFVKPNPGSSTDGNSAGHSGNNILGSEVALFA
B2: ephrinB2-Fc (human ephrinB2 residues 1-229, Factor XA cleavage site, human IgG1 residues 100-330) (Fc fusion)
chain: IVLEPIYWNSSNSKFLPGQGLVLYPQIGDKLDIICPKVDSKTVGQYEYYKVYMVDKDQADRCTIKKENTPLLNCAKPDQDIKFTIKFQEFSPNLWGLEFQKNKDYYIISTSNGSLEGLDNQEGGVCQTRAMKILMKVGQDASSAGSTRNKDPTRRPELEAGTNGRSSTTSPFVKPNPGSSTDGNSAGHSGNNILGSEVALFA
notes: also called dimeric ephrinB2; dimeric receptor
B3: Wildtype NiV G ectodomain (Nipah virus attachment glycoprotein G, residues 71-602, N-terminal His6-tag) (domain or fragment)
chain: QNYTRSTDNQAVIKDALQGIQQQIKGLADKIGTEIGPKVSLIDTSSTITIPANIGLLGSKISQSTASINENVNEKCKFTLPPLKIHECNISCPNPLPFREYRPQTEGVSNLVGLPNNICLQKTSNQILKPKLISYTLPVVGQSGTCITDPLLAMDEGYFAYSHLERIGSCSRGVSKQRIIGVGEVLDRGDEVPSLFMTNVWTPPNPNTVYHCSAVYNNEFYYVLCAVSTVGDPILNSTYWSGSLMMTRLAVKPKSNGGGYNQHQLALRSIEKGRYDKVMPYGPSGIKQGDTLYFPAVGFLVRTEFKYNDSNCPITKCQYSKPENCRLSMGIRPNSHYILRSGLLKYNLSDGENPKVVFIEISDQRLSIGSPSKIYDSLGQPVFYQASFSWDTMIKFGDVLTVNPLVVNWRNNTVISRPGQSQCPRFNTCPEICWEGVYNDAFLIDRINWISAGVFLDSNQTAENPVFTVFKDNEILYRAQLASEDTNAQKTITNCFLLKNKIWCISLVEIYDTGDNVIRPKLFAVKIPEQCT
B4: Stag-ephrinB2-167 (S-tagged monomeric ephrinB2 globular domain, residues 25-167) (domain or fragment, human, UniProt P52799 25-167, looked up)
chain: SKSIVLEPIYWNSSNSKFLPGQGLVLYPQIGDKLDIICPKVDSKTVGQYEYYKVYMVDKDQADRCTIKKENTPLLNCAKPDQDIKFTIKFQEFSPNLWGLEFQKNKDYYIISTSNGSLEGLDNQEGGVCQTRAMKILMKVGQD
B5: ephrinB2-167 from His6-ephrinB2-167 with the His6-tag removed by enterokinase cleavage (domain or fragment, human, UniProt P52799 25-167, looked up)
chain: B4 chain
notes: also called monomeric ephrinB2

Series [1] addresses B3. Nature of the series: ELISA. The conditions noted are these: both partners purified. Background: ELISA stands for enzyme-linked immunosorbent assay.
Series [2] deals with T1, SHG-labeled wildtype NiV G ectodomain (Nipah virus, UniProt Q9IH62 71-602).
T1 sequence: B3 chain
Briefly: second harmonic generation (SHG). The conditions noted are these: both partners purified.

Series [3] deals with the molecule itself. Briefly: negative stain electron microscopy.

The record followed here is PMC5626764 (Nature Communications, 2017).

One may read the Kd as a measure of binding affinity in units of concentration. A lower Kd goes with tighter binding. The molecule B1 had an equilibrium dissociation constant (Kd) in series [1] of 33.2 nM.

Consider B2, for which, in series [1], the Kd amounted to 0.088 nM. The ΔSHG in series [2] is -12.9%. In general, stoichiometry N refers to the number of molecules, sites or subunits per partner or assembly. As to B3, the “stoichiometry N” value in series [3] worked out at 4. With B4, in series [1], the Kd is 11.9 nM.

B5: the ΔSHG in series [2] is -27.9%.
